Data published in patent US20200040059A1 (ALPINE IMMUNE SCIENCES, published 2020).
Residue numbers refer to the chain shown, from its start. Numbers in names are those of the source.

B1: variant PD-L2 IgV-Fc V89D (Fc fusion, not shown: a dimerising Fc or GST; small tags and cut ends)
chain: LFTVTVPKELYIIEHGSNVTLECNFDTGSHVNLGAITASLQKVENDTSPHRERATLLEEQLPLGKASFHIPQVQVRDEGQYQCIIIYGDAWDYKYLTLK
B2: ICOSL variant N52D ECD-Fc fusion (Fc fusion)
chain: DTQEKEVRAMVGSDVELSCACPEGSRFDLNDVYVYWQTSESKTVVTYHIPQDSSLENVDSRYRNRALMSPAGMLRGDFSLRLFNVTPQDEQKFHCLVLSQSLGFQEVLSVEVTLHVAANFSVPVVSAPHSPSQDELTFTCTSINGYPRPNVYWINKTDNSLLDQALQNDTVFLNMRGLYDVVSVLRIARTPSVNIGCCIENVLLQQNLTVGSQTGNDIGERDKITENPVSTGEKNAAT
notes: not shown: no entry of the listing is held
B3: ICOSL variant F120S/Y152H/N201S ECD-Fc fusion (Fc fusion)
chain: B2 chain with D52N, F120S, Y152H, N201S
notes: not shown: C220S/R292C/N297G/V302C) and the AAA linker to it
B4: ICOSL variant N52S/S130G/Y152C ECD-Fc fusion (Fc fusion)
chain: B2 chain with D52S, S130G, Y152C
notes: not shown: The AAA linker to it is left out
B5: ICOSL variant N52H/N57Y/Q100P ECD-Fc fusion (Fc fusion)
chain: B2 chain with D52H, N57Y, Q100P
notes: as for B2
B6: ICOSL variant N52S/Y146C/Y152C ECD-Fc fusion (Fc fusion, not shown: a dimerising Fc or GST; small tags and cut ends)
chain: B2 chain with D52S, Y146C, Y152C

Target: PD-1-Fc
Test: Fortebio (BLI), PD-1-Fc

| Fortebio binding to PD-1-Fc Response Units [Response Units] | Binder |
| --- | --- |
| 0.005 | B1 |

Target: human ICOS as used for the 'ICOS OD' read-out of Table 14 (human)
Sequence (Q9Y6W8 whole entry): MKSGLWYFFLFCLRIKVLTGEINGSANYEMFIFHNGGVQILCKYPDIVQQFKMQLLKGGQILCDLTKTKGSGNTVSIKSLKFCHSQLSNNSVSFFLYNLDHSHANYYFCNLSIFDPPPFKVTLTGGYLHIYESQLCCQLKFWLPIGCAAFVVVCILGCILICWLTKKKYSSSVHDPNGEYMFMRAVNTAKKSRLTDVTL
Test: binding read as OD; format not described

| ICOS OD [OD] | ICOS OD parental ratio | Binder |
| --- | --- | --- |
| 1.59 | 1.85 ratio to WT ICOSL ECD-Fc | B2 |
| 0.63 | 0.73 ratio to WT ICOSL ECD-Fc | B3 |
| 0.16 | 0.19 ratio to WT ICOSL ECD-Fc | B4 |
| 1.57 | 1.83 ratio to WT ICOSL ECD-Fc | B5 |
| 1.26 | 1.47 ratio to WT ICOSL ECD-Fc | B6 |
